Values joined by “and” are separate entries in the source; they are usually repeats but may differ in a detail not shown here. Equal values may be shown once. Read-outs that look alike come from different tables or passages of the source.
Experiments:
[1] = molecular target: the molecule itself; assay: AUC
[2] = Secondary structural content by CD spectroscopy; type: physicochemical; settings: 25 °C, protein 5 μM, 50 mM Tris–HCl pH 7.5, 150 mM NaCl, 0.1% β‐mercaptoethanol, CDSSTR
[3] = type: physicochemical; settings: CD at 220 nm, protein 7 μM, 50 mM Tris–HCl pH 7.5, 150 mM NaCl, 0.1% β‐mercaptoethanol
[4] = molecular target: the molecule itself; assay: AUC; remark: listed apart in the source
[5] = molecular target: the molecule itself; assay: AUC; remark: listed apart in the source

Molecule	Kd [1]	stoichiometry N [1]	also measured
HCoV‐229E nucleocapsid (N) protein C‐terminal domain truncation N245–376 (domain or fragment) QKPRWKRQPNDDVTSNVTQCFGPRDLDHNFGSAGVVANGVKAKGYPQFAELVPSTAAMLFDSHIVSKESGNTVVLTFTTRVTVPKDHPHLGKFLEELNAFTREMQQHPLLNPSALEFNPSQTSPATAEPVRD	159 µM	4 and 2	
HCoV‐229E nucleocapsid (N) protein C‐terminal domain truncation N245–370 (domain or fragment) QKPRWKRQPNDDVTSNVTQCFGPRDLDHNFGSAGVVANGVKAKGYPQFAELVPSTAAMLFDSHIVSKESGNTVVLTFTTRVTVPKDHPHLGKFLEELNAFTREMQQHPLLNPSALEFNPSQTSPAT	177 µM	2 and 4	
HCoV‐229E nucleocapsid (N) protein C‐terminal domain truncation N245–350 (domain or fragment) QKPRWKRQPNDDVTSNVTQCFGPRDLDHNFGSAGVVANGVKAKGYPQFAELVPSTAAMLFDSHIVSKESGNTVVLTFTTRVTVPKDHPHLGKFLEELNAFTREMQQ	256 µM	2 and 4	
N245–350: truncated C‐terminal domain of the HCoV‐229E N protein, dimeric C‐terminal structural domain (protein, left off: His6, C-terminal, state not stated) QKPRWKRQPNDDVTSNVTQCFGPRDLDHNFGSAGVVANGVKAKGYPQFAELVPSTAAMLFDSHIVSKESGNTVVLTFTTRVTVPKDHPHLGKFLEELNAFTREMQQ			Disordered (random coil) content [2]: ~15%; Sheet content [2]: ~22%; Turn content [2]: ~12%; melting temperature (Tm) [3]: 35.5 °C
HCoV‐229E nucleocapsid (N) protein C‐terminal domain truncation N245–382 (domain or fragment) QKPRWKRQPNDDVTSNVTQCFGPRDLDHNFGSAGVVANGVKAKGYPQFAELVPSTAAMLFDSHIVSKESGNTVVLTFTTRVTVPKDHPHLGKFLEELNAFTREMQQHPLLNPSALEFNPSQTSPATAEPVRDEVSIET	3.83 µM		
HCoV‐229E nucleocapsid (N) protein C‐terminal domain N245–389 (domain or fragment) QKPRWKRQPNDDVTSNVTQCFGPRDLDHNFGSAGVVANGVKAKGYPQFAELVPSTAAMLFDSHIVSKESGNTVVLTFTTRVTVPKDHPHLGKFLEELNAFTREMQQHPLLNPSALEFNPSQTSPATAEPVRDEVSIETDIIDEVN	3.5 µM		Kd [4]: ~9.7 µM; Kd [5]: ~6.1 µM

From publication PMC7089611 (Febs Letters, 2012)
